Results as given in US20090068102A1, “TREATING STROKE” (BIOGEN IDEC MA INC., priority 2005, published 2009).

B1: rhTWEAK: recombinant soluble human TWEAK containing amino-acid residues A106-H249 (protein, UniProt O43508 106-249, looked up, fragment)
chain: AIAAHYEVHPRPGQDGAQAGVDGTVSGWEEARINSSSPLRYNRQIGEFIVTRAGLYYLYCQVHFDEGKAVYLKLDLLVDGVLALRCLEEFSATAASSLGPQLRLCQVSGLLALRPGSSLRIRTLPWAHLKAAPFLTYFGLFQVH

How the values were obtained:
[1] = tested on: NF-κB; test: NF-κB luciferase reporter (pNF-κB-Luc) in transfected cortical neurons; type: cell-based, mouse
Protocol: (§1) Cell culture and transient transfection. Cortical neurons were prepared from embryonic day 16 (E16) mice. For transfection, cells were plated on 24-well plates precoated with poly-D-lysine (50 ng/ml) at a density of 200,000 cells per well. For RNA preparation, 2 million cells per well were plated on six-well plates. Cells were incubated in NEUROBASAL™ medium (Invitrogen) supplemented with B27 (Invitrogen), L-glutamine (0.5 mM), penicillin (100 IU/ml), and streptomycin (100 μg/ml). In these cultures, >95% of cells were positive for the neuronal marker NeuN. After 10 days in vitro, cells were transfected using LIPOFECTAMINE™ 2000 (Invitrogen) and 1 ng per well of the NF-κB reporter plasmid pNF-κB-Luc, which has five tandem repeats of an NF-κB binding site (Stratagene, Amsterdam, The Netherlands), according to the manufacturer's protocol. After 24 hours, cells were stimulated as indicated and harvested. Luciferase activity was measured as described (Sallmann et al. (2000) J. Neurosci. 20:8637-8642).
As indicated, cortical neurons were prepared from a transgenic mouse line (NSE-IκBα-SR) that expressed the NF-κB super-repressor, a mutant of IκBα (IκBα-SR), selectively in neurons. In this transgene, two serine residues, which are phosphorylated by the IκB kinase (IKK), are exchanged to alanines. Neuronal expression is driven by a 1.8 KB fragment of the rat neuron-specific enolase (NSE) promoter. The cell dissociation was performed individually from the brain of each transgenic or wild-type embryo. To control for transfection efficiency, cortical neurons of NSE-IκBα-SR mice and wild-type littermates were cotransfected with 0.1 μg Per well of phRL-TK (Promega, Mannheim, Germany) in addition to pNF-κB-Luc.

[2] = tested on: cortical neurons; test: TWEAK-induced cell death in cortical neurons (DAPI and TUNEL staining); type: cell-based
Protocol: as §1
As indicated, cortical neurons were prepared from a transgenic mouse line (NSE-IκBα-SR) that expressed the NF-κB super-repressor, a mutant of IκBα (IκBα-SR), selectively in neurons. In this transgene, two serine residues, which are phosphorylated by the IκB kinase (IKK), are exchanged to alanines. Neuronal expression is driven by a 1.8 KB fragment of the rat neuron-specific enolase (NSE) promoter. The cell dissociation was performed individually from the brain of each transgenic or wild-type embryo. […]
Cell death assays. […] TUNEL and DAPI-positive cells were detected under a fluorescent microscope. On each coverslip, five randomly selected fields were counted with a 40× objective (corresponding to ˜800 cells per coverslip). […] Lactate dehydrogenase (LDH) activity in medium was quantified with the Cytotoxicity Detection Kit (LDH; Roche). LDH activity in untreated sister cultures was subtracted, and the LDH activity was expressed as percentage of the maximally releasable LDH pool in the presence of 1 mM glutamate.

[3] = tested on: cortical neurons; test: Cell Death Detection ELISA (histone-associated DNA fragments) in cortical neurons; type: cell-based, mouse; conditions: 100 ng/ml, 24 hr
Protocol: Cell death assays. For terminal deoxynucleotidyl transferase-mediated biotinylated UTP nick end labeling (TUNEL) staining, the cells were fixed in 4% paraformaldehyde at room temperature for 30 minutes. Then, cells were washed twice in PBS for 5 minutes and treated for 2 minutes with 200 μl of permeabilization solution (0.1% Triton X-100 and 0.1% sodium citrate in PBS) at 4° C. After washing, sections were incubated with 50 μl of TUNEL reaction mix (enzyme solution diluted 1:6 in labeling solution; In Situ Cell Detection Kit, Fluorescein; Roche, Mannheim, Germany) for 1 hour at 37° C. in the dark. Then, coverslips were mounted with medium containing 4′,6-diamidino-2-phenylindole dihydrochloride (DAPI; VECTASHIELD®; Vector Laboratories, Burlingame, Calif.). TUNEL and DAPI-positive cells were detected under a fluorescent microscope. On each coverslip, five randomly selected fields were counted with a 40× objective (corresponding to ˜800 cells per coverslip). Cell Death Detection ELISA^Plus (Roche) was performed according to the manufacturer's instructions. Lactate dehydrogenase (LDH) activity in medium was quantified with the Cytotoxicity Detection Kit (LDH; Roche). LDH activity in untreated sister cultures was subtracted, and the LDH activity was expressed as percentage of the maximally releasable LDH pool in the presence of 1 mM glutamate.

[4] = exposure for 24 hours, 100 ng/ml

Row | Molecule | NF-κB activation by rhTWEAK and Fc-hTWEAK ([1]; BMS-345541 25 μM) | NF-κB stimulation in neurons of NSE-IκBα-SR mice vs wild-type littermates ([1]; rhTWEAK 100 ng/ml) | NF-κB activity (luciferase) ([1]; stimulation for 24 hours) | nuclear condensation (DAPI stain) [2, 4] | number of cortical neurons that were TUNEL positive [2, 4] | cell death (TUNEL) in IκBα-SR-expressing neurons vs wild-type ([2]; rhTWEAK 100 ng/ml, 24 hours) | DNA-histone complexes specific to apoptotic DNA fragmentation (ELISA) [3] | effect size in DNA-histone ELISA compared with camptothecin ([3]; vs 10 μM camptothecin)
1 | Cc1ccc2nc(NCCN)c3ncc(C)n3c2c1 [BMS-345541, reference compound] | blocked | – | – | – | – | – | – | –
2 | B1 | – | significantly less | stimulated NF-κB activity in a concentration-dependent manner | induced nuclear condensation | increased significantly | protected from cell death | programmed cell death being induced | comparable with the one with 10 μM camptothecin
